This series has as its system N[C@@H](CC=O)C(=O)O. Briefly: purified protein, by the assay type. The settings on record: other: pH 8.0.

As to H. pylori Asd (Helicobacter pylori J99), the Km was determined as 54 µM.

A word on the Km: it is the substrate concentration at which the rate is half of its maximum.

(Values after US20040052799A1, “Nucleic acid and amino acid sequences relating to Helicobacter pylori for diagnostics and therapeutics” (Astra Aktiebolag, priority 1996, published 2004).)
